Laboratory results: patent publication US20240343818A1, “Antibodies Having Humanized Framework Regions” (priority 2021, published 2024)

Assays:
L-82 xenograft = L-82 xenograft with CD30 ADCs; format: in vivo, mice
Protocol: (§1) Female NOD/SCID mice were used (8 mice/group) for the study. Animals were inoculated subcutaneously in the flank with 10 million cells in 50% PBS/50% Matrigel. When tumors reached an average volume of 100 mm^3, all animals were treated (Day 0) with a single 10 mg/kg intravenous dose of human IgG. Then, on Day 1, animals were treated with vehicle alone, with unconjugated antibody (3 mg/kg), or with an ADC at 1.5 or 3 mg/kg. The animals were monitored twice weekly for body weight and tumor size. Animals were euthanized when tumors reached 2000 mm^3. ADCs were highly efficacious in this study.

Karpas 299 xenograft = Karpas 299 xenograft with CD30 ADCs; format: in vivo, mice
Protocol: as §1, with “CB17/SCID” for “NOD/SCID”, “(6” for “(8”, “5” for “10”, “PBS.” for “50% PBS/50% Matrigel.”, “214” for “100”, “mm^3,” for “mm^3, all animals were treated (Day 0) with a single 10 mg/kg intravenous dose of human IgG. Then, on Day 1,”

[1] = Melting temperature by differential scanning fluorimetry; format: physicochemical
[2] = Forced stability of ADCs, high-molecular weight species by size-exclusion chromatography; format: physicochemical; conditions: for HWM pH 5.5, 3 d 45° C.: pH 5.5, 3 d at 45° C.; for HWM pH 5.5, 3 d −80° C.: pH 5.5, 3 d at −80° C.; for HWM pH 7.2, 3 d 45° C.: pH 7.2, 3 d at 45° C.; for HWM pH 7.2, 3 d −80° C.: pH 7.2, 3 d at −80° C.
Source text: ADCs were conjugated at the antibody heavy chain C-terminus to a noncleavable linker bearing a maytansine payload for a DAR of ˜1.9. Samples were placed in buffer at the designated pH and temperature for 3 days, then analyzed by size-exclusion chromatography. HMW, high-molecular weight species.

[3] = single intravenous dose, ADC 1.5 or 3 mg/kg, unconjugated antibody 3 mg/kg
[4] = ADC (heavy chain C-terminus, noncleavable maytansine linker-payload, DAR ~1.9)

Molecule	complete responses (L-82 xenograft; L-82 xenograft, NOD/SCID mice, single intravenous dose 3 mg/kg (equal dosing))	complete responses (Karpas 299 xenograft; Karpas 299 xenograft, CB17/SCID mice, 6 mice/group, single intravenous dose 3 mg/kg (equal dosing))	efficacy in L-82 xenograft (L-82 xenograft; [3])	efficacy in Karpas 299 xenograft (Karpas 299 xenograft; [3])	Fab Tm [1, 4]	Fab Tm ([1]; Antibody)	HWM pH 5.5, 3 d 45° C. [2]	HWM pH 5.5, 3 d −80° C. [2]	HWM pH 7.2, 3 d 45° C. [2]	HWM pH 7.2, 3 d −80° C. [2]
Adcetris: anti-CD30 ADC used as comparator in the xenograft studies [reference compound]	8 out of 8 mice/group	6/6								
VH4/VL4 antibody (antibody, V domains shown) VH: QVQLVQSGAEVKKPGASVKVSCKASGYTFTDYYITWVRQAPGQGLEWMGWIYPGSGNTKYNEKFKGRVTITVDTSASTAYMELSSLRSEDTAVYYCANYGNYWFAYWGQGTLVTVSS VL: DIVLTQSPDSLAVSLGERATINCKASQSVDFDGDSYMNWYQQKPGQPPKLLIYAASNRESGVPDRFSGSGSGTDFTLTISSLQAEDVAVYYCQQSNEDPWTFGGGTKVEIK			minimal activity	minimal activity						
H1/L4 (conjugate) VH: QVQLQQSGPEVVKPGASVKVSCKASGYTFTDYYMTWVRQKPGQGLEWMGWIYPGSGNTKYNQKFKGRVTITVDTSSSTAFMELSSLTSEDTAVYFCANYGNYWFAYWGQGTQVTVSA VL: DIVLTQSPDSLAVSLGERATINCKASQSVDFDGDSYMNWYQQKPGQPPKLLIYAASNRESGVPDRFSGSGSGTDFTLTISSLQAEDVAVYYCQQSNEDPWTFGGGTKVEIK					80 °C	81.17 °C	10.05%	1.66%	16.42%	2.90%
H4/L2 (conjugate) VH: QVQLVQSGAEVKKPGASVKVSCKASGYTFTDYYITWVRQAPGQGLEWMGWIYPGSGNTKYNEKFKGRVTITVDTSASTAYMELSSLRSEDTAVYYCANYGNYWFAYWGQGTLVTVSS VL: DIVMTQSPASLAVSLGERATISCKSSQSVDFDGDSYLNWYQQKPGQPPKLLIYAASTRESGVPARFSGSGSGTDFTLTISSLQEEDVATYYCQQSNEDPWTFGGGTKVEIK					73 °C	75.54 °C	6.18%	1.24%	30.38%	2.37%
H4/L4 (conjugate) VH: QVQLVQSGAEVKKPGASVKVSCKASGYTFTDYYITWVRQAPGQGLEWMGWIYPGSGNTKYNEKFKGRVTITVDTSASTAYMELSSLRSEDTAVYYCANYGNYWFAYWGQGTLVTVSS VL: DIVLTQSPDSLAVSLGERATINCKASQSVDFDGDSYMNWYQQKPGQPPKLLIYAASNRESGVPDRFSGSGSGTDFTLTISSLQAEDVAVYYCQQSNEDPWTFGGGTKVEIK					82 °C	80.43 °C	7.70%	1.66%	23.28%	3.14%
